Experimental data as given in the supplement of paper PMC10567573.

B1: RSAD1 (parent)
chain: YCNFNKYIPRRLEEAAMQKCLVTE

Variants of: B1
Assay: protein stability index of a GFP-peptide fusion (GPS, HEK-293T) (PSI 1-6); higher = more stable
Details: c terminus: a fixed tail appended
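Further: lentivirally expressed fusions sorted by FACS into six bins by GFP to DsRed ratio, PSI derived from sequencing read proportions per bin multiplied by bin number.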

| Variant | protein stability index |
| --- | --- |
| YCNMNKYIPRRLEEAAMQKCLVTE [F4M] | 2.35 |
| YCNKNKYIPRRLEEAAMQKCLVTE [F4K] | 2.26 |
| YCNINKYIPRRLEEAAMQKCLVTE [F4I] | 1.67 |
| YCNNNKYIPRRLEEAAMQKCLVTE [F4N] | 2.49 |
| YCNVNKYIPRRLEEAAMQKCLVTE [F4V] | 3.15 |
| YCPFNKYIPRRLEEAAMQKCLVTE [N3P] | 2.03 |
| YCEFNKYIPRRLEEAAMQKCLVTE [N3E] | 1.99 |
| YCSFNKYIPRRLEEAAMQKCLVTE [N3S] | 1.84 |
| YCIFNKYIPRRLEEAAMQKCLVTE [N3I] | 1.61 |
| YCFFNKYIPRRLEEAAMQKCLVTE [N3F] | 2.4 |
| YCMFNKYIPRRLEEAAMQKCLVTE [N3M] | 2.24 |
| YCTFNKYIPRRLEEAAMQKCLVTE [N3T] | 2.6 |
| YCNFNKYIPRRLEEAAMQKCLVHE [T23H] | 2.92 |
| YCNFNKYIPRRLEEAAMQKCLVSE [T23S] | 1.93 |
| YCNFNKYIPRRLEEAAMQKCLVDE [T23D] | 1.78 |
| YCNFNKYIPRRLEEAAMQKCLVKE [T23K] | 2.27 |
| YCNFNKYIPRRLEEAAMQKCLVLE [T23L] | 1.91 |
| YCNFNKYIPRRLEEAAMQKCLVNE [T23N] | 2.85 |
| YCNFNKYIPRRLEEAAMQKCLVWE [T23W] | 2.85 |
| YCNFNKYIPRRLEEAAMQHCLVTE [K19H] | 1.7 |
| YCNFNKYIPRRLEEAAMQNCLVTE [K19N] | 2.37 |
| YCNFNKYIPRRLEEAAMQCCLVTE [K19C] | 2.08 |
| YCNFNKYIPRRLEEAAMQECLVTE [K19E] | 2.71 |
| YCNFNKYIPRQLEEAAMQKCLVTE [R11Q] | 1.67 |

| Variant | protein stability index |
| --- | --- |
| YCNFNKYIPRILEEAAMQKCLVTE [R11I] | 3.24 |
| YCNFNKYIPRELEEAAMQKCLVTE [R11E] | 2.17 |
| YCNFNKYIPRDLEEAAMQKCLVTE [R11D] | 1.84 |
| YCNFNKYIPRNLEEAAMQKCLVTE [R11N] | 1.61 |
| YCNFNKYIPRLLEEAAMQKCLVTE [R11L] | 2.57 |
| YCNFNKYIPRRIEEAAMQKCLVTE [L12I] | 2.98 |
| YCNFNKYIPRRKEEAAMQKCLVTE [L12K] | 2.42 |
| YCNFNKYIPRRLEFAAMQKCLVTE [E14F] | 2.31 |
| YCNFNKYIPRRLEYAAMQKCLVTE [E14Y] | 1.33 |
| YCNFNKYIPRRLECAAMQKCLVTE [E14C] | 2.27 |
| YCNFNKYIPRRLEAAAMQKCLVTE [E14A] | 3.07 |
| YCNFNKYIPRRLEVAAMQKCLVTE [E14V] | 3.05 |
| YCNFNKYIPRRLETAAMQKCLVTE [E14T] | 2.09 |
| YFNFNKYIPRRLEEAAMQKCLVTE [C2F] | 2.35 |
| YTNFNKYIPRRLEEAAMQKCLVTE [C2T] | 2.2 |
| YYNFNKYIPRRLEEAAMQKCLVTE [C2Y] | 1.89 |
| YINFNKYIPRRLEEAAMQKCLVTE [C2I] | 1.76 |
| YCNFNKYILRRLEEAAMQKCLVTE [P9L] | 2.28 |
| YCNFNKYIQRRLEEAAMQKCLVTE [P9Q] | 1.54 |
| YCNFNKYIYRRLEEAAMQKCLVTE [P9Y] | 2.48 |
| YCNFNKYIDRRLEEAAMQKCLVTE [P9D] | 2.38 |
| YCNFNKYIIRRLEEAAMQKCLVTE [P9I] | 2.85 |
| YCNFNKYINRRLEEAAMQKCLVTE [P9N] | 1.82 |
| YCNFNKYITRRLEEAAMQKCLVTE [P9T] | 1.79 |

| Variant | protein stability index |
| --- | --- |
| YCNFNKYIPRRLEEPAMQKCLVTE [A15P] | 2.85 |
| YCNFNKYIPRRLEETAMQKCLVTE [A15T] | 3.34 |
| YCNFNKYIPRRLEECAMQKCLVTE [A15C] | 1.83 |
| YCNFNKYIPRRLEENAMQKCLVTE [A15N] | 2.09 |
| YCNFNKYIPRRLEEDAMQKCLVTE [A15D] | 2.55 |
| YCNFNKYIPRRLEEKAMQKCLVTE [A15K] | 1.69 |
| YCNFNKYIPRRLEEIAMQKCLVTE [A15I] | 1.56 |
| YCNFNKYIPRRLEEAAMNKCLVTE [Q18N] | 3.44 |
| YCNFNKYIPRRLEEAAMSKCLVTE [Q18S] | 2.02 |
| YCNFNKYIPRRLEEAAMMKCLVTE [Q18M] | 3.17 |
| YCNFNKYIPRRLEEAAMVKCLVTE [Q18V] | 3.15 |
| YCNFNKYIPRRLEEAAMRKCLVTE [Q18R] | 2.03 |
| YCNFNKYIPRRLDEAAMQKCLVTE [E13D] | 3.69 |
| YCNFNKYIPRRLIEAAMQKCLVTE [E13I] | 1.66 |
| YCNFNKYIPRRLYEAAMQKCLVTE [E13Y] | 1.88 |
| YCNFNKYIPRRLFEAAMQKCLVTE [E13F] | 2.34 |
| YCNFNKYIPRRLTEAAMQKCLVTE [E13T] | 2.55 |
| YCNFNKYIPRRLEEAAMQKCLVTW [E24W] | 2.13 |
| YCNFNKYIPRRLEEAAMQKCLVTN [E24N] | 2.17 |
| YCNFNKYIPRRLEEAAMQKCLVTH [E24H] | 2.08 |
| YCNFNKYIPRRLEEAAMQKCLVTK [E24K] | 2.46 |
| YCNFNKYIPRRLEEAAMQKCLVTC [E24C] | 3.44 |
| YCNFNKYIPRRLEEAAHQKCLVTE [M17H] | 3.23 |
| YCNFNKYIPRRLEEAARQKCLVTE [M17R] | 1.71 |

| Variant | protein stability index |
| --- | --- |
| YCNFNKYIPRRLEEAALQKCLVTE [M17L] | 1.96 |
| YCNFNKYIPRRLEEAAQQKCLVTE [M17Q] | 2.57 |
| RCNFNKYIPRRLEEAAMQKCLVTE [Y1R] | 1.96 |
| DCNFNKYIPRRLEEAAMQKCLVTE [Y1D] | 2.47 |
| GCNFNKYIPRRLEEAAMQKCLVTE [Y1G] | 1.89 |
| QCNFNKYIPRRLEEAAMQKCLVTE [Y1Q] | 3.07 |
| VCNFNKYIPRRLEEAAMQKCLVTE [Y1V] | 1.99 |
| YCNFNWYIPRRLEEAAMQKCLVTE [K6W] | 2.56 |
| YCNFNLYIPRRLEEAAMQKCLVTE [K6L] | 2.58 |
| YCNFNRYIPRRLEEAAMQKCLVTE [K6R] | 1.7 |
| YCNFNGYIPRRLEEAAMQKCLVTE [K6G] | 3.22 |
| YCNFNQYIPRRLEEAAMQKCLVTE [K6Q] | 1.5 |
| YCNFNHYIPRRLEEAAMQKCLVTE [K6H] | 3.4 |
| YCNFNVYIPRRLEEAAMQKCLVTE [K6V] | 3.4 |
| YCNFRKYIPRRLEEAAMQKCLVTE [N5R] | 2.48 |
| YCNFWKYIPRRLEEAAMQKCLVTE [N5W] | 2.15 |
| YCNFFKYIPRRLEEAAMQKCLVTE [N5F] | 1.25 |
| YCNFNKEIPRRLEEAAMQKCLVTE [Y7E] | 3.1 |
| YCNFNKNIPRRLEEAAMQKCLVTE [Y7N] | 2.58 |
| YCNFNKFIPRRLEEAAMQKCLVTE [Y7F] | 3.98 |
| YCNFNKKIPRRLEEAAMQKCLVTE [Y7K] | 2.42 |
| YCNFNKHIPRRLEEAAMQKCLVTE [Y7H] | 2.68 |
